Data taken from the DeepSol protein solubility set.

Assay: soluble on expression in E. coli; label from the status in PepcDB or PDB records

## MKDFLRLELPVLPLRNTVVLPHTTTGVDVGRLKSKRAVEEALSADRLLFLVTQKDPEVDDPAPEDLYAVGTLAVVKQAMRLPDGTLQVMVEARSRARLLSYVAAPYLRAVGEAIPEPPLKDPELARVLVNEVQEAFERYLQNHKTLRLDRYQQEAVKSTRDPAILADLVAHHATWTLEEKQTILETPEVEERLKRVLALLLRDLERFELDKKIAARVKEQMDQNQREYYLREQMKAIQKELGGGEDFLTEIEELRERIEKKGMPEPVKEKALKELKRLERMQPGSPEATVSRTYLDWLLEVPWTEADPEVLDISVTKRVLDEDHYGLKEVKERILEYLAVRQLTQGKEVKGHAPILCFVGPPGVGKTSLGKSIARSMNRRFHRISLGGVRDEAEIRGHRRTYIGALPGKIIQGMKQVGVVNPVFLLDEIDKLSSDWRGDPAAALLEVLDPEQNHTFTDHYLDVPYDLSKVFFITTANTLSTIPRPLLDRMEVIEIPGYTLHEKRAIARYFRWPFQVKEAGLEGRLEITDRAIERIVQEYTREAGVRNLDRELSKVARKAAKDYLEKPWEGVRVVDAEDLEAYLGVPKYRPDRAEKEPQVGAAQGLAWTPYGGTLLTIEAVAVPGTGKVNLTGNLGEVMKESDHAVLTYLRVHREEWGLPEGFHKDYDLHIHVPEGATPKDGPSAGITIATALASALTGRPVRMDIAMTGEITLRGRVLPIGGVKEKLLAAHQAGIHRVILPKENAAELKEVPEEILKDLEIHFVEEVGEVLKLLLLPPPPPPAVQPDRPQPGVGA
  soluble on expression in E. coli: soluble

## MAHHHHHHMGKHMNNQDFAETEQAARAIRKLLNGEIDTIKLENGNKLKIRSSDEKDDAHKRHNDKTNYSFIDNSEEENVQTNLLRKNETVDAGSKIVEDQEDFYILDNESIEAIANKISMENKFHEFEAEAFAQSLKDIIRSLNN
  soluble on expression in E. coli: soluble

## MALLAEHLLRPLPADKQIETGPFLEAVSHLPPFFDCLGSPVFTPIKADISGNITKIKAVYDTNPTKFRTLQNILEVEKEMYGAEWPKVGATLALMWLKRGLRFIQVFLQSICDGERDENHPNLIRVNATKAYEMALKKYHGWIVQKIFQAALYAAPYKSDFLKALSKGQNVTEEECLEKVRLFLVNYTATIDVIYEMYTRMNAELNYKV
  soluble on expression in E. coli: soluble

## KREHAKQHGMIRTEITGAEIAEEMEKERRLFQLQMCEYLIKVNEIKTKKGVDLLQNLIKYYHAQCNFFQDGLKTADKLKQYIEKLAADLYNIKQTQDEEKKQLTALRDLIKSSLQLDQKESRRDSQSRQGGYSMHQLQGNKEYGSEKKGYLLKKSDGIRKVWQRRKCSVKNGILTISHATSNRQPAKLNLLTCQVKPNAEDKKSFDLISHNRTYHFQAEDEQDYVAWISVLTNSKEEALTMAFRGEQSAGENSLEDLTKAIIEDVQRLPGNDICCDCGSSEPTWLSTNLGILTCIECSGIHREMGVHISRIQSLELDKLGTSELLLAKNVGNNSFNDIMEANLPSPSPKPTPSSDMTVRKEYITAKYVDHRFSRKTCSTSSAKLNELLEAIKSRDLLALIQVYAEGVELMEPLLEPGQELGETALHLAVRTADQTSLHLVDFLVQNCGNLDKQTALGNTVLHYCSMYSKPECLKLLLRSKPTVDIVNQAGETALDIAKRLKATQCEDLLSQAKSGKFNPHVHVEYEWNLRQEEIDESDDDLDDKPSPIKKERSPRPQSFCHSSSISPQDKLALPGFSTPRDKQRLSYGAFTNQIFVSTSTDSPTSPTTEAPPLPPRNAGKGPTGPPSTLPLSTQTSSGSSTLSKKRPPPPPPGHKRTLSDPPSPLPHGPPNKGAVPWGNDGGPSSSSKTTNKFEGLSQQSSTSSAKTALGPRVLPKLPQKVALRKTDHLSLDKATIPPEIFQKSSQLAELPQKPPPGDLPPKPTELAPKPQIGDLPPKPGELPPKPQLGDLPPKPQLSDLPPKPQMKDLPPKPQLGDLLAKSQTGDVSPKAQQPSEVTLKSHPLDLSPNVQSRDAIQKQASEDSNDLTPTLPETPVPLPRKINTGKNKVRRVKTIYDCQADNDDELTFIEGEVIIVTGEEDQEWWIGHIEGQPERKGVFPVSFVHILSD
  soluble on expression in E. coli: soluble

## MSLKRVMLKISGEALAGTNGYGIDFEVANRIAKEIKEIVDLGIEVGAVVGGGNIWRGRNGKGMDRTTADYMGMLATCINALALQDSLENMDVDTRVQTAIEMKQVAEPFIRRRAMRHLEKGRVVIFAGGTGNPYFSTDTTAALRAAEIEADVILLAKKVDGVYDKDPHKYDDAIKFDNLTYMEVLEKNLQVMDSTATSLCMDNNIPIIVFGLDVSGNIRKAVLGEKIGTIVSKEGHHHHHH
  soluble on expression in E. coli: soluble

## MGHHHHHHGGHMSLENLNSYIKGHFADSILVKEQILKDENLITLIKNASLEVIKAYKNGNKTLLAGNGGSAADAQHIAGEFVSRFYFDRPGIASIALTTDTSILTAIGNDYGYENLFARQVQAQGVKGDVFIGISTSGNSKNILKALEFCKQKEIISIGLSGASGGAMNELCDYCIKVPSTCTPRIQEAHILIGHIICAIVEEELFGKGFSCKQEGGS
  soluble on expression in E. coli: soluble
